Experiment [1] deals with T1, C-terminus-biotin labeled compound 1 (an N-terminus peptide of FGF-8) (human, C-terminus biotin label).
T1 construct: also called FGF-8 peptide
T1 peptide: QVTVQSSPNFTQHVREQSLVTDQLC
Description: BIAcore 2000, biotin FGF-8 peptide on SA chip, antibody in solution, RU compared; dissociation hardly observed. As for the experimental part:
In order to examine the activity of various anti-FGF-8 CDR-grafted antibodies obtained in the item 5 of Example 5 to bind to FGF-8 in more detail, activities of various anti-FGF-8 CDR-grafted antibodies to bind to FGF-8 were measured and compared as follows by using BIAcore 2000 (manufactured by BIACORE). The CHO/DG44-derived anti-FGF-8 chimeric antibody KM3034 obtained in the item 3(1) of Example 3 was used as a positive control.
Hereinbelow, HBS-EP (manufactured by Pharmacia) was used as the buffer solution for dilution of samples and during the measurement. First, a sensor tip SA (manufactured by BIACORE) was set, and 5 μl of a C-terminus-biotin labeled compound 1 (an N-terminus peptide of FGF-8; SEQ ID NO:17) prepared to a solution of 0.05 μg/ml was added thereto at a flow rate of […]. Thereafter, the tip surface was washed by adding 5 μl of 10 mmol/l Glycine-HCl buffer (pH 1.5) continuously twice. Immobilized amount of the FGF-8 peptide was 35 RU.
To the FGF-8 peptide immobilized flow cell, 60 μl of each antibody solution was added at a flow rate of 20 μl/minute, and then the dissociation reaction was monitored for 3 minutes. After the dissociation reaction, the tip surface was regenerated by adding 20 μl of 10 mmol/l Glycine-HCl buffer (pH 1.5) continuously twice. This cycle was carried out for antibody solutions of various concentrations (50 to 1.85 μg/ml), and a sensorgram at each concentration was obtained. The sensorgram of each antibody was made into a sensorgram of specific reaction by subtracting a sensorgram obtained using a chimeric antibody KM871 for GD3 [Cancer Immunol. Immunother., 36, 373 (1993)] as a negative control.

The target in experiment [2] is T2, BSA-compound 1 (Compound 1, human FGF-8 peptide, conjugated with bovine serum albumin) (human, conjugated to BSA through SMCC).
T2 peptide: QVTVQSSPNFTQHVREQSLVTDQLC
Nature of the experiment: ELISA on BSA-compound 1, positive control. As for the experimental part:
The conjugate prepared in the above was dispensed at 50 μl/well into a 96 well plate for ELISA (manufactured by Greiner) at a concentration of 0.5 to 1.0 μg/ml and allowed to stand for adsorption overnight at 4° C. After washing with PBS, 1% BSA-containing PBS (BSA-PBS) was added at 100 μl/well and allowed for blocking of remaining active groups to react at room temperature for 1 hour. After washing each well with 0.05% Tween-containing PBS (Tween-PBS), culture supernatants of transformants or purified antibodies were added at 50 μl/well and allowed to react at room temperature for 1 hour. After the reaction, each well was washed with Tween-PBS and then a peroxidase-labeled goat anti-human IgG (H & L) antibody solution (manufactured by American Qualex) diluted 3,000 to 6,000-folds with BSA-PBS was added as a secondary antibody solution at 50 μl/well and allowed to react at room temperature for 1 hour. […] Thereafter, absorbance at 415 nm (OD415) was measured.
The activity of various anti-FGF-8 CDR-grafted antibodies obtained in the item 4 of Example 4 to bind to FGF-8 was measured by the ELISA described in the item 2(6) of Example 3. […]
In general terms: ELISA stands for enzyme-linked immunosorbent assay.

For experiment [3], the target named is T3, human FGF-8 partial peptide (Sequence ID NO:1) cross-linked with thyroglobulin (human, cross-linked to thyroglobulin (THY) with glutaraldehyde).
T3 construct: Coated on the plate as a thyroglobulin conjugate; also called THY-FGF-8 peptide antigen; FGF-8 peptide
T3 peptide: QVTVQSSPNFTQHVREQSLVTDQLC
Nature of the experiment: enzyme immunoassay, peptide-thyroglobulin conjugate coated on the plate. As for the experimental part:
A conjugate obtained by cross-linking the human FGF-8 partial peptide shown in Sequence ID NO:1 with thyroglobulin in the following manner was used as the antigen for the assay. That is, 1 mg of the peptide was dissolved in 0.1 M ammonium acetate buffer and the solution was adjusted to 1 ml by adding 5 mg of THY which has been dissolved in advance in the same buffer. To this, while stirring, was added dropwise 540 μl of 0.02 M glutaraldehyde, followed by 5 hours of stirring at room temperature to effect the reaction. After the reaction, the reaction solution was dialyzed overnight against PBS and used as the antigen. A conjugate obtained in the same manner by cross-linking the peptide shown in Sequence ID NO:2 with THY was used as a reference antigen. […] After washing with Tween-PBS, a peroxidase-labeled rabbit anti-mouse immunoglobulin (manufactured by DAKO) was distributed in 50 μl portions into wells of the plate to carry out 1 hour of reaction at room temperature, the plate was again washed with Tween-PBS, and then color development was effected using an ABTS substrate [2,2-azinobis(3-ethylbenzothiazole-6-sulfonic acid)ammonium] solution and absorbance at OD₄₁₅ was measured (NJ 2001, Japan Intermed).

Experiment [4] deals with T2, BSA-compound 1 (Compound 1, human FGF-8 …). Description: ELISA on BSA-compound 1. The protocol:
The conjugate prepared in the above was dispensed at 50 μl/well into a 96 well plate for ELISA (manufactured by Greiner) at a concentration of 0.5 to 1.0 μg/ml and allowed to stand for adsorption overnight at 4° C. After washing with PBS, 1% BSA-containing PBS (BSA-PBS) was added at 100 μl/well and allowed for blocking of remaining active groups to react at room temperature for 1 hour. After washing each well with 0.05% Tween-containing PBS (Tween-PBS), culture supernatants of transformants or purified antibodies were added at 50 μl/well and allowed to react at room temperature for 1 hour. After the reaction, each well was washed with Tween-PBS and then a peroxidase-labeled goat anti-human IgG (H & L) antibody solution (manufactured by American Qualex) diluted 3,000 to 6,000-folds with BSA-PBS was added as a secondary antibody solution at 50 μl/well and allowed to react at room temperature for 1 hour. After the reaction and subsequent washing with Tween-PBS, an ABTS substrate solution [a solution prepared by dissolving 0.55 g of 2,2′-azinobis(3-ethylbenzothiazoline-6-sulfonic acid) ammonium in 1 L of 0.1 M citrate buffer (pH 4.2) and adding 1 μl/ml hydrogen peroxide just before use] was added at 50 μl/well for color development, and the reaction was stopped by adding 5% SDS solution at 50 μl/well. Thereafter, absorbance at 415 nm (OD415) was measured.
The activity of various anti-FGF-8 CDR-grafted antibodies obtained in the item 4 of Example 4 to bind to FGF-8 was measured by the ELISA described in the item 2(6) of Example 3. The YB2/0-derived anti-FGF-8 chimeric antibody KM3334 obtained in the item 3(2) of Example 3 was used as a positive control.

The target in experiment [5] is T4, FGF-8 (manufactured by R&D) (UniProt P55075-3 23-215, limits assumed).
T4 sequence (looked up): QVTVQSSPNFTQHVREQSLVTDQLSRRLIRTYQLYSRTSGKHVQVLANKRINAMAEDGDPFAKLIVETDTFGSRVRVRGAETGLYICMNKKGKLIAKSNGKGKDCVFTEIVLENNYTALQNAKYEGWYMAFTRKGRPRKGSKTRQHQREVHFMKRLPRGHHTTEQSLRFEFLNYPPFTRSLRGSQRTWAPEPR
Description: cell-based or functional assay.

In experiment [6] the target is T1, C-terminus-biotin labeled compound 1 …. Nature of the experiment: BIAcore 2000, biotin FGF-8 peptide on SA chip, Example 6, RU compared; dissociation hardly observed. Background: Surface plasmon resonance follows binding to a sensor surface in real time, without labels.

Positions count from the first letter of the chain named.

Experimental findings from patent US20040091480A1 (Kyowa Kirin, published 2004) are described below.

B1: anti-FGF-8 CDR-grafted antibody HV0LV3-1/CHO (antibody, V domains shown)
VH: QVQLVQSGAEVKKPGASVKVSCKASGYTFTDYYLNWVRQAPGQGLEWMGEIDPGSDSIYYNENLEGRVTITADTSTSTAYMELSSLRSEDTAVYYCARYGYSRYDVRFVYWGQGTLVTVSS
VL: DVVMTQSPLSLPVTPGEPASISCRSSQSLVHSNGRTYLEWYLQKPGQSPQVLIYKVSNRISGVPDRFSGSGSGTDFTLKISRVEAEDVGVYFCFQGSHVPYTFGQGTKVEIK
notes: HV.0 + LV.3-1, human gamma1/kappa constant regions, made in CHO/DG44 cells; also called KM8036; FERM BP-8083
With B1, the binding result in experiment [1] is “binds”.

B2: anti-FGF-8 chimeric antibody KM3334 (antibody, V domains shown)
VH: QVQLQQSGAEVARPGASVKLSCKASGYTFTDYYLNWVKQRSGQGLEWIGEIDPGSDSIYYNENLEGRATLTADKSSSTAYMQLNSLTSEDSAVYFCARYGYSRYDVRFVYWGQGTLVTVST
VL: B1 VL with V3L, S7T, T14S, P15L, E17D, P18Q, Q50K, V88L, Q105G, V109L
With B2, in experiment [2], the binding result was “binds”.

B3: anti-FGF-8 monoclonal antibody KM 1334 (antibody, mouse IgG1, V domains shown)
VH: B2 VH
VL: B1 VL with V3L, S7T, T14S, P15L, E17D, P18Q, Q50K, V88L, Q105G, V109L
notes: Mouse IgG1, kappa L chain, purified from ascites; also called anti-FGF-8 mouse antibody KM1334; antibody of hybridoma FERM BP-5451
Turning to B3, the binding result in experiment [3] is “binds”.

B4: anti-FGF-8 chimeric antibody KM3034 (antibody, V domains shown)
VH: B2 VH
VL: B1 VL with V3L, S7T, T14S, P15L, E17D, P18Q, Q50K, V88L, Q105G, V109L
notes: Human chimeric antibody, human gamma1 CH and kappa CL (vector pKANTEX93), made in CHO/DG44 cells; also called FERM BP-7836
For B4, in experiment [1], the binding result is on record as “binds”.

B5: anti-FGF-8 CDR-grafted antibody HV0LV6 (YB2/0 cell-derived) (antibody, V domains shown)
VH: B1 VH
VL: B1 VL with T14S, P15L, Q50K
notes: also called KM8037; FERM BP-8084
Regarding B5, in experiment [4], the binding result is “binds”.

B6: anti-FGF-8 CDR-grafted antibody HV0LV4-3/CHO (antibody, V domains shown)
VH: B1 VH
VL: B1 VL with V2I, T14S, P15L
notes: HV.0 + LV.4-3, human gamma1/kappa constant regions, made in CHO/DG44 cells; also called KM8035
As for B6, in experiment [5], the “FGF-8 neutralization activity, FGF-8-dependent growth of SC-3 cells” value was ~0.5 fold of the activity of KM3034. For the same molecule, in experiment [6], the binding result is recorded as “binds”.

B7: anti-FGF-8 CDR-grafted antibody HV6LV6 (YB2/0 cell-derived) (antibody, V domains shown)
VH: B1 VH with K12A, K13R, A40R, P41S, M48I, Y95F
VL: B1 VL with T14S, P15L, Q50K
Turning to B7, in experiment [4], the binding result is listed as “binds”.

B8: anti-FGF-8 CDR-grafted antibody HV0LV6/CHO (antibody, V domains shown)
VH: B1 VH
VL: B1 VL with T14S, P15L, Q50K
notes: also called KM8034
On to B8, for which, in experiment [1], the binding result is “binds”.

B9: anti-FGF-8 CDR-grafted antibody HV0LV0/CHO (antibody, V domains shown)
VH: B1 VH
VL: B1 VL with V2I, V51L, F92Y
Regarding B9, in experiment [1], the binding result is given as “binds”.

B10: anti-FGF-8 CDR-grafted antibody HV0LV3-3/CHO (antibody, V domains shown)
VH: B1 VH
VL: B1 VL with V2I, T14S, P15L, F92Y
In the case of B10, in experiment [5], the “FGF-8 neutralization activity, FGF-8-dependent growth of SC-3 cells” value was ~0.5 fold of the activity of KM3034.

B11: anti-FGF-8 CDR-grafted antibody HV0LV0 (YB2/0 cell-derived) (antibody, V domains shown)
VH: B1 VH
VL: B1 VL with V2I, V51L, F92Y
On to B11, for which the binding result in experiment [4] is on record as “binds”.
